Assay results taken from article PMC3162612, “RssAB Signaling Coordinates Early Development of Surface Multicellularity in Serratia marcescens” (PLoS ONE, 2011).

Target: T1, GST-tagged non-phosphorylatable variant RssB D51E (Serratia marcescens, UniProt Q8GP20 1-219, D51E)
T1 construct: RssB, response regulator of the RssAB two-component system, Serratia marcescens CH-1, with D51E; plasmid pGST-RssB^D51E (pGEX-2T-rssB D51E); used to mimic unphosphorylated RssB; also called GST-RssB^D51E; source: E. coli BL21(DE3)pLysS, purified
T1 sequence: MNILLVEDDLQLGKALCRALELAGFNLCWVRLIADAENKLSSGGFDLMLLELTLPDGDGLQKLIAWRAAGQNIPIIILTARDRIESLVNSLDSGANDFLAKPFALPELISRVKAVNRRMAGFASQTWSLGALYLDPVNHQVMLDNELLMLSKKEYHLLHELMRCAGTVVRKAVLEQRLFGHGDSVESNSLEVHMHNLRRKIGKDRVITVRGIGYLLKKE
Test: pull-down; GST, GST-RssB or GST-RssB D51E pretreated with acetyl-phosphate, incubated with His-cRssA and glutathione sepharose-4B in interaction buffer (20 mM Tris-HCl pH 7.5, 10 mM MgCl2, 100 mM KCl), 4°C 1 hr; washed; SDS-PAGE, Coomassie stain and anti-hexa-histidine blot
Details: both partners purified

B1: poly histidine-tagged cytoplasmic region of RssA (domain or fragment)
chain: LRPLRQIARTISDRQPGNLSPINVSEQYQEIRPVVMEVNKLMARIDAANQREKRFMADAAHELRTPIAAVLAQLHLLTQVTEQQERREIIGDMQQGLDRAASLSRQLINLAKLEAEDFPLKIEAVDIYAEIGKCIAQHVPYALEKDVELSLDGSEDVVVSTDRRALIAIFTNLLDNALKYAPPGSRIEANIRSLAPLGCYITLRDNGPGVSEEHRSRLFERFYRVPGTQQTGSGLGLAIARNLADKIGAQLRVTEGLDDRGIGFIIDLPESYRPQTESEPRP
notes: RssA, inner membrane sensor kinase of the RssAB two-component system, Serratia marcescens CH-1; also called His-cRssA; cRssA; source: E. coli BL21(DE3)pLysS, recombinant protein for purification
- fold His-cRssA pulled down relative to GST-RssB: ~2 fold
